Results published in paper PMC11187106.

Biological target: CtBP2(WT) (human) (UniProt P56545)
Assay: SEC; analytical Superose 6 3.2/300 GL, 50 mM HEPES (pH 7.2), 150 mM NaCl; CtBP kept at 100 µM, RAI2 variants titrated at ratios 1:0.1 to 1:2; proteins also run alone; assembly stoichiometries estimated from the elution volumes

stoichiometry N: 4
Substance: CtBP2(WT), P56545 1-445 (natural protein; other documents disagree on this pair)
